According to patent publication US20160178646A1, “METHODS FOR DETECTING AMYLOID BETA AMYLOIDOSIS” (Washington University, priority 2011, published 2016):

Assay: Aβ SILK tracer kinetics in CSF with compartmental model of Aβ turnover
Format: in vivo, human
Conditions: for FTR faster: cognitively normal, amyloid positive group compared to cognitively normal, amyloid negative group; for FTR, Mean(95% confidence limits) / kex42 (Aβ42 exchange rate), Mean(95% confidence limits): multivariate ANOVA; for FTR (fractional turnover rate): mean ± StDev
Text: These human studies took place at the Washington University School of Medicine in St. Louis and were approved by the Washington University Human Studies Committee and the General Clinical Research Center (GCRC) Advisory Committee. All participants completed informed written consent. One hundred and one participants were enrolled for these studies comprising 57 men (aged from 60.4 to 87.7) and 44 women (aged 63.8 to 85.2). Deposition of amyloid plaques was quantified in 62 subjects based on the mean cortical binding potential (MCBP) score of [^11C]PIB-PET.^15 PET PIB scans were performed within 3 years before or after the SILK tracer study date. Cognitive status using the Clinical Dementia Rating sum of boxes score (CDR-SB16) and ApoE genotyping^33 was assessed in all subjects.
The procedure for stable isotope amino acid tracer administration and sample collection was previously described.^12 Briefly, intravenous and intrathecal lumbar catheters were placed between 7:00 AM and 9:00 AM, and the collection of samples was started between 8:00 AM and 10:00 AM. After initial CSF and plasma baseline samples were collected, each participant was infused with a bolus of 3 mg/kg L-[U-^13C6] leucine for 10 minutes, followed by a constant infusion (2 mg/kg/h) for the remainder of the first 9 hours. Blood samples (12 mL) were obtained hourly for the first 16 h and every other hour thereafter. CSF samples (6 mL) were obtained hourly throughout each study. Aliquots of plasma and CSF were frozen at −80° C. immediately in 1 mL polypropylene tubes after being collected for subsequent determination of plasma leucine and CSF Aβ isoform peptide enrichment. The sample collection for one subject was truncated at 4 hours; this subject was excluded from the analysis.
All samples were processed and measured in a blinded fashion with data results and individual analysis completed before unblinding to participant's disease state. The procedure for sample preparation, data acquisition and processing were previously described.^34 Briefly, 1 mL of CSF from each hour of collection and media standards were thawed. Aβ was purified and processed for mass spectrometry by immunoprecipitation with a mid-domain binding antibody HJ5.1 (Aβ amino acids 13 to 28). […] The purified Aβ was then digested with Lys-N (Metalloendopeptidase) and isotopic enrichment of Aβ c-terminal isoform specific peptides (Aβ29-38, Aβ29-40, and Aβ29-42) were measured using a nano-liquid chromatography (NanoLC-2D-Ultra system (Eksigent Technologies, CA USA)) coupled to a TSQ Vantage triple quadrupole mass spectrometer (ThermoScientific, San Jose USA) that was equipped with a column-heating nanospray source (Phoenix S&T, Chester Pa. USA). Xcalibur V2.1 was used to collect and quantify the mass spectrometry data for SILK. […] Samples for 100 subjects (including the prior 24 subjects) were analyzed utilizing the more specific and sensitive method34 in this study.
The time and magnitude of the peak maximum was determined by fitting a 2nd order curve to enrichment vs. time over an 11-h interval centered at the approximate peak maximum. The compartmental model previously developed and applied to Autosomal Dominant AD participants was used to determine model-dependent parameters of Aβ turnover kinetics (FIG. 18).^14 Modeling was performed using the Population Kinetics (PopKinetics, version 1.0.1) companion application to the SAAM II modeling program (version 1.2.1, SAAM Institute, University of Washington, Seattle). PopKinetics performed an iterative two-stage approach to optimize kinetic parameters to individual participants as well as the population as a whole by including a term that represents the population mean and standard deviation for each adjustable parameter such that variability of the kinetic parameters across the population is minimized. […] The model consists of a plasma leucine pool, a subsystem for production of Aβ through APP and C99, turnover of Aβ, and transport of Aβ to CSF.

Substance: Aβ40: naturally occurring amyloid-beta isoform Aβx-40, where x is any N-terminal cleavage site; endogenous, measured as biomarker
- FTR faster: 17%
- FTR, Mean(95% confidence limits) (CDR = 0 Amyloid+): CDR = 0 Amyloid+ 0.096(0.083-0.109)
- FTR, Mean(95% confidence limits) (CDR = 0 Amyloid−): CDR = 0 Amyloid− 0.082(0.068-0.096)
- FTR, Mean(95% confidence limits) (CDR > 0 Amyloid+): CDR > 0 Amyloid+ 0.074(0.067-0.081)
- FTR, Mean(95% confidence limits) (CDR > 0 Amyloid−): CDR > 0 Amyloid− 0.094(0.083-0.106)
- mean FTR (not significantly different by univariate analysis of amyloid status): 0.082±0.022

Substance: Aβ42: naturally occurring amyloid-beta isoform Aβx-42, where x is any N-terminal cleavage site; endogenous, measured as biomarker
- correlation between annualized change in fibrillar amyloid by PET PIB and FTR Aβ42 (R) (Amyloid positive and Amyloid negative participants): 0.56
- exchange rate constant (amyloid negative participants): 0.006±0.032 pools/h
- FTR (fractional turnover rate) (amyloid negative participants): 0.094±0.031 pools/h
- exchange rate constant (amyloid positive participants): 0.049±0.054 pools/h
- FTR (fractional turnover rate) (amyloid positive participants): 0.112±0.035 pools/h
- FTR (clinically normal amyloid negative group): 0.091 pool/h
- FTR (clinically normal amyloid positive group): 0.143 pool/h
- FTR faster: 57%
- deposition rate constant (into amyloid plaques) (difference of FTR, clinically normal amyloid positive minus negative): 0.052 pool/h
- increase in exchange of newly synthesized soluble Aβ42 (in amyloidosis): ten-fold increase
- kex42 (Aβ42 exchange rate), Mean(95% confidence limits) (Amyloid+): Amyloid+ 0.059(0.042-0.076)
- FTR, Mean(95% confidence limits) (Amyloid+ participants, CSF SILK): Amyloid+ 0.124 (0.112-0.135)
- kex42 (Aβ42 exchange rate), Mean(95% confidence limits) (Amyloid−): Amyloid− 0.006(−0.016-0.029)
- FTR, Mean(95% confidence limits) (Amyloid− participants, CSF SILK): Amyloid− 0.101 (0.086-0.115)
